From patent US20080213284A1 come the findings set out here.

Read-outs that look alike come from different tables or passages of the source.

Assay [1] has as its target receptor on VERO E6 cells (not identified in the filing).
Assay [2] shares this target. Put plainly: FACS competition against S2-Fc (330 ng/mL) on VERO E6 cells; agent at 1 µg/mL.
Assay [3] shares this target. Put plainly: FACS competition against S2-Fc (330 ng/mL) on VERO E6 cells; agent at 10 µg/mL.

As for Negative control (blocking agent), the Percent of Inhibition in assay [1], in assay [2] and in assay [3] was 0% throughout.
On to “recombinant RBD2 (from UniProt P59594 284-735)”, for which the Percent of Inhibition in assay [1], in assay [2] and in assay [3] was 100% throughout.
